The source of these data is PMC10962938 (Proceedings of the National Academy of Sciences of the …, 2024).

What is called Kd is the free concentration of one partner at which half of the binding sites on the other are occupied at equilibrium, for simple one-to-one binding. A high value points to a looser complex.

Assay [1] deals with Δ131Δ with a K16C mutation (model client). The assay is described as follows: fluorescence polarisation. For orientation: In fluorescence polarisation assays a small probe gives low polarisation when free and higher when bound to something large.
Assay [2] shares this target. As to the kind of experiment: fluorescence polarisation. The source holds these as a separate data set.
The target of assay [3] is Grp94 full-length (FL) wild type (human, UniProt P14625 22-803, biotin label (Grp94 NH3-bio), in the streptavidin pull-down). The assay is described as follows: pull-down.

Where two headings read alike, the source gives them in different places.

Grp94 full-length (FL) wild type (human, UniProt P14625 22-803, biotin label (Grp94 NH3-bio), in the streptavidin pull-down), sequence (P14625 22-803): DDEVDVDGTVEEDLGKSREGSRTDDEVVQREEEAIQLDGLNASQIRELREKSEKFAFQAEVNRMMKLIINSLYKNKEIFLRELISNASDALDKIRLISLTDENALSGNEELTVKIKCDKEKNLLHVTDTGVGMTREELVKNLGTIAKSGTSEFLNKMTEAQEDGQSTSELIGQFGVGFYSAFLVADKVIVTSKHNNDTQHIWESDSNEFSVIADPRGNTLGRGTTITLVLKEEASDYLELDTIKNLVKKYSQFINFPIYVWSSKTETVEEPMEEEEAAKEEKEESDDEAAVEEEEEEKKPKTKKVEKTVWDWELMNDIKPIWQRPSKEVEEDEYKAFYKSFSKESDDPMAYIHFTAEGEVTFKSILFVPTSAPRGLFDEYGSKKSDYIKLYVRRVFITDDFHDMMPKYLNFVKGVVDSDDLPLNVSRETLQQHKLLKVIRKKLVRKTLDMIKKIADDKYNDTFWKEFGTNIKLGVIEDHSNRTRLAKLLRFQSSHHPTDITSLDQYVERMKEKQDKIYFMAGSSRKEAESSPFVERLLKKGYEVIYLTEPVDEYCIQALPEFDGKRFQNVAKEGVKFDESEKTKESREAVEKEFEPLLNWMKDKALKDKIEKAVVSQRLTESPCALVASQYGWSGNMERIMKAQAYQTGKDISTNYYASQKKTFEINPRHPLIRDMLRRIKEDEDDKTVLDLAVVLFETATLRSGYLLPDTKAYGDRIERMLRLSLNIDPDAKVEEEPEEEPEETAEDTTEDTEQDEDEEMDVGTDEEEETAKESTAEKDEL

Regarding “Grp94 Δ72 (pre-N domain truncation, aa 73-803) (from UniProt P14625 73-803) (domain or fragment)”, the fold decrease of binding affinity against apo conditions in assay [1] turned out to be 6 fold; in assay [2] it was 4 fold.
As for “Grp94 full-length (FL) wild type (from UniProt P14625 22-803) (natural protein)”, in assay [1], the fold decrease of binding affinity against apo conditions amounted to 2 fold. In assay [2], this molecule gave a Kd of 7.2 µM and a fold decrease of binding affinity against apo conditions of 2 fold.

B1: DnaJB11 (BiP co-chaperone, J-protein) (natural protein)
chain: GRDFYKILGVPRSASIKDIKKAYRKLALQLHPDRNPDDPQAQEKFQDLGAAYEVLSDSEKRKQYDTYGEEGLKDGHQSSHGDIFSHFFGDFGFMFGGTPRQQDRNIPRGSDIIVDLEVTLEEVYAGNFVEVVRNKPVARQAPGKRKCNCRQEMRTTQLGPGRFQMTQEVVCDECPNVKLVNEERTLEVEIEPGVRDGMEYPFIGEGEPHVDGEPGDLRFRIKVVKHPIFERRGDDLYTNVTISLVESLVGFEMDITHLDGHKVHISRDKITRPGAKLWKKGEGLPNFDNNNIKGSLIITFDVDFPKEQLTEEAREGIKQLLKQGSVQKVYNGLQGY
Take B1: in assay [3], the binding result is given as “binds”.
